Data reported in US20100166722A1.

Columns and labels:
[1] = target: cognate NY-ESO peptide-MHC presented on peptide-pulsed APCs; assay: cell-based or functional assay
[2] = target: biotinylated cognate NY-ESO peptide-HLA-A*0201 complex; assay: SPR (Biacore 3000), soluble TCR over immobilised biotinylated pMHC

| Substance | IFN-γ release ELISA, CD4+ T cells; peptide pulsing level needed for a significant response [1] [nM] | Half-live (T½) [2] [s] |
| --- | --- | --- |
| full-length wild-type 1G4 NY-ESO TCR expressed on transfected T cells | > 10 |  |
| soluble disulfide-linked wild-type 1G4 NY-ESO TCR |  | 2.2 |
